Source: patent US20040219637A1

Key:
[1] = molecular target: Crotalus durissus terrificus venom; assay: ELISA, venom coat, undiluted
[2] = molecular target: Crotalus durissus terrificus venom; assay: ELISA, venom coat, dilution 1:5
[3] = molecular target: Crotalus durissus terrificus venom; assay: ELISA, venom coat, dilution 1:25
[4] = molecular target: Crotalus durissus terrificus venom; assay: ELISA, venom coat, dilution 1:25; remark: listed apart in the source
[5] = molecular target: Crotalus durissus terrificus venom; assay: ELISA, venom coat, dilution 1:125
[6] = molecular target: Crotalus durissus terrificus venom; assay: ELISA, venom coat, dilution 1:625
[7] = molecular target: Crotalus durissus terrificus venom; assay: ELISA, venom coat, dilution 1:125; remark: listed apart in the source
[8] = molecular target: Crotalus durissus terrificus venom; assay: ELISA, venom coat, dilution 1:625; remark: listed apart in the source
[9] = molecular target: Crotalus durissus terrificus venom; assay: ELISA, venom coat, dilution 1:3125
[10] = molecular target: Crotalus durissus terrificus venom; assay: ELISA, venom coat, dilution 1:3125; remark: listed apart in the source
[11] = molecular target: Crotalus durissus terrificus venom; assay: ELISA, venom coat, dilution 1:62,500
[12] = molecular target: Crotalus durissus terrificus venom; assay: ELISA, venom coat, dilution 1:312,500

Question: What does the source list for “Preimmune IgY (egg yolk antibody of unimmunized hens)”?
Answer: ELISA absorbance [1]: 0.003 absorbance; ELISA absorbance [2]: < 0 absorbance; ELISA absorbance [3]: 0.016 absorbance; ELISA absorbance [4]: 0 absorbance; ELISA absorbance [5]: < 0 absorbance; ELISA absorbance [6]: < 0 absorbance; ELISA absorbance [7]: 0.003 absorbance; ELISA absorbance [8]: 0 absorbance; ELISA absorbance [9]: < 0 absorbance; ELISA absorbance [10]: 0.002 absorbance; ELISA absorbance (412 nm) [11]: 0.001 absorbance; ELISA absorbance (412 nm) [12]: 0.01 absorbance
